# Assay results published in US8415106B2, “Cell-based screen for agents useful for reducing neuronal demyelination or promoting neuronal remyelination” (Myelin Repair Foundation, Inc., priority 2005, dated 2013).
# Values joined by “and” are separate entries in the source; they are usually repeats but may differ in a detail not shown here. Equal values may be shown once.
# Columns and labels:
# [1] = system: ER stress markers (BIP, CHOP, p-eIF-2α, caspase-12); assay: ER stress markers in IFN-γ-treated cultured rat oligodendrocytes (real-time PCR, Western blot); format: cell-based
# Protocol: To test whether apoptosis of oligodendrocytes that is induced by INF-γ affects ER stress, the effect on the morphology, the degree of apoptosis and the expression of ER markers was studied in a culture of oligodendrocyte precursor cells (OPC). Oligodendrocyte progenitors were cultured from neonatal rat brains (Baerwald, et al. (1998) J. Neurosci. Res. 52: 230-239). A mixed glial culture was grown in flasks in medium containing 10% fetal bovine serum (FBS), and when the astrocyte layer became confluent (10-14 days), oligodendrocyte progenitors were separated from astrocytes and microglia using an orbital shaker. Cells, greater than 95% of which were A2B5 positive, GFAP negative and CD11b negative, were cultured in 0.5% FBS containing medium, which also contained PDGF (10 ng/ml) and FGF (5 ng/ml) (both from R&D Systems, Minneapolis, Minn.). Then cells were switched to 0.5% FBS medium without PDGF and FGF for differentiation. After 5 days in the differentiating medium, approximately 40% of cells were positive for myelin protein 2′3′-cyclic nucleotide 3′-phosphodiestaerase (CNP). 70 U/ml recombinant rat IFN-γ (Calbiochem, La Jolla, Calif.) was added to the cells that had been allowed to differentiation for 5 days. […]
# To determine whether INF-γ affects ER function, the RNA expression of ER markers binding immunoglobulin protein (BIP), CAAT enhancer binding protein homologous protein (CHOP), and caspase 12 was determined using real time PCR. […]
# To determine the effect of INF-γ on the level of phosphorylated eIF-2α and caspase 12 proteins, western blot analysis was performed using the following antibodies anti-eIF-2α (1:500; Santa Cruz), anti-p-eIF-2α (1:1000, Cell signaling Technology), anti-caspase-12 (1:500; Santa Cruz) and anti-actin (1:1000; Sigma, St Louis, Mo.), and according to the following protocol. […] The protein content of each extract was determined by protein assay (Bio-Rad). […]
# [2] = system: mice with EAE; assay: MOG 35-55-induced EAE, CNS delivery of INF-γ at EAE onset (PERK+/+ double or PERK+/− triple mice); format: in vivo; settings: for Mean of maximum clinical score (mean ± S.D.): 0-5 point scale; for Mean of maximum clinical score (mean ± S.D.) / Day of onset of disease (PID: postimmunization day): n = 25
# [3] = system: Stat1; assay: Stat1 nuclear translocation assay in mixed primary oligodendrocyte cultures; format: cell-based, mice; settings: 100 U/mL IFN-γ for 30 min, one hundred PLP positive cells counted
# Protocol: Mixed primary oligodendrocyte cultures were prepared as previously described (Baerwald et al., 2000). Briefly, brain tissue was harvested from 2-3-day-old newborn pups of PLP/SOCS1 and C57B1/6J matings. Because the litters contained transgenic and wild-type pups, the brain of each animal was processed individually, cultured separately, and later genotype matched. Each brain was digested separately using 0.25% trypsin and 10 μg/ml of DNAaseI (Invitrogen) in Dulbecco's modified Eagle's medium (DMEM) for 20 min at 37° C., and cells were cultured on separate poly-D-lysine-coated […] flasks (Sigma-Aldrich). The cultures were maintained with 10% fetal bovine serum DMEM at 37° C. with 5% CO2 for 12 days, and then switched to a defined medium containing […] of insulin, 50 μg/ml of transferrin, 30 nM of selenium, 10 nM of biotin, 1 nM of progesterone, 15 nM of T3, 0.1% bovine serum albumin, and 1% […] (Sigma-Aldrich). […] One hundred PLP positive cells were manually counted in both wild-type and PLP/SOCS1 cultures. […]
# The responsiveness of PLP/SOCS1 oligodendrocytes to IFN-γ was studied in primary mixed glial cultures. […] In contrast, Stat1 nuclear translocation was detected only in occasional PLP positive oligodendrocytes (6±2 cells) following IFN-γ stimulation (p<0.05).
molecule,measurement,setting,value
"IFN-γ: pleotropic cytokine secreted by activated T lymphocytes and natural killer cells; recombinant rat IFN-γ added to cultures or transgenically expressed in mouse CNS (protein, UniProt P01581 23-156, looked up) Interferon gamma: QGTLIESLESLKNYFNSSSMDAMEGKSLLLDIWRNWQKDGNTKILESQIISFYLRLFEVLKDNQAISNNISVIESHLITNFFSNSKAKKDAFMSIAKFEVNNPQIQHKAVNELIRVIHQLSPESSLRKRKRSRC",caspase-12 expression (real-time PCR),[1]; 70 U/ml IFN-γ,induction of caspase-12 was observed
same,level of phosphorylated eIF-2α (Western blot),"[1]; 70 U/ml IFN-γ, oligodendroglial cultures",significantly elevated
same,level of the active fragment of caspase-12 (Western blot),[1]; after 48 h of IFN-γ treatment,strongly elevated
same,Incidence of death,[2]; DOX− double mice (PERK+/+),0/25
same,Mean of maximum clinical score (mean ± S.D.),[2]; DOX− double mice (PERK+/+),1.63 ± 0.51
same,Day of onset of disease (PID: postimmunization day),[2]; DOX− double mice (PERK+/+),14.7 ± 1.4
same,Incidence of hind limb paralysis,"[2]; DOX− double mice (PERK+/+), listed as INF-γ",2 of 25 and 2/25
same,MBP mRNA level in the spinal cord versus age-matched naive mice,"[2]; DOX− double mice, PID17, DOX+ double mice decreased by 30%",not significantly decreased
same,Incidence of death,[2]; DOX− triple mice (PERK+/−),3/25
same,Incidence of hind limb paralysis,[2]; DOX− triple mice (PERK+/−),18/25
same,Mean of maximum clinical score (mean ± S.D.),[2]; DOX− triple mice (PERK+/−),2.71 ± 1.11
same,Day of onset of disease (PID: postimmunization day),[2]; DOX− triple mice (PERK+/−),13.6 ± 0.8
same,PLP positive oligodendrocytes with Stat1 nuclear translocation,[3]; PLP/SOCS1 cultures,6±2 cells
same,PLP positive oligodendrocytes with Stat1 nuclear translocation,[3]; wild-type cultures,96±3 cells
